Data from the supplement of paper PMC10065799, “High-throughput profiling of sequence recognition by tyrosine kinases and SH2 domains using bacterial peptide display” (eLife, 2023).

The sequences below were run against c-Src SH2 (assay: SH2 binding enrichment of the phosphorylated peptide, bacterial display (enrichment ratio); higher = better substrate or ligand; peptides without Tyr show the background).
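Wherever SH2 binding enrichment of the phosphorylated peptide, bacterial display is given: peptide library displayed on the E. coli surface as eCPX fusions, selected cells deep-sequenced, score is each peptide's frequency after selection divided by its frequency in the input.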
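Wherever phosphorylation enrichment, bacterial display is given: 11-residue human phosphosite peptides and single-mutation variants displayed on the E. coli surface, counted by deep sequencing, each peptide's frequency after selection divided by its frequency in the unselected input library; frequency after pTyr selection over input frequency; kinase dosed for 20-30% of maximal phosphorylation in three min.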

Sequence | SH2 binding enrichment
QRRLVYFEGGA [RYR1_Y245_YF] | 0.727
TFACSYTPVKA [FLNB_Y708_YF] | 0.587
RETPLYKACER [ASB2_Y162] | 0.855
DVYVSYDCGKS [SORL1_Y139_Y141C] | 0.476
PSELYYSKISP [SMG1_Y2254_G2258S] | 4.6
NEKNIYGVPLM [BMPR2_Y247_R248G] | 0.478
YPRTGYSVPYG [TGM1_Y370_L366P] | 5.88
FGSGNYNDFGN [HNRNPA2B1_Y300_YF] | 0.683
INPIIYAFVGE [CCR5_Y297] | 0.46
KLIMECLPYGS [JAK2_Y931_Y931C] | 0.451
FGVVGYLAIVF [RNF175_Y155_M159V] | 0.662
ADDSFYTVRSA [ZAP70_Y493_A495V_YF] | 0.466
ERNTVYSSSGV [NELL2_Y350] | 0.485
FGAHKYHPLPV [OAT_Y55_N54K_YF] | 1.31
WFPYTYVEEDE [VAV3_Y842_S840Y] | 3.92
EVNETYVPKEF [ALB_Y521_D518N] | 0.404
VAFVFYKSIGP [ADGRL4_Y302_YF] | 0.553

Sequence | SH2 binding enrichment
SILAVYSKDIF [PANK2_Y400_N404I_YF] | 0.764
LARDMCDKEYY [MET_Y1230_Y1230C] | 0.952
DNQYAYLKAII [HNF4A_Y288_E285Q] | 0.531
AEPPDYSPVTH [ADGRG2_Y285] | 0.477
HFPDVYAREQL [ALX3_Y181_YF] | 0.56
RRNNSYTCYTA [SLC20A2_Y386] | 0.526
LLIVEYAKFGS [RET_Y806_YF] | 1.05
RLVVVYPWTQR [HBB_Y36_L33V] | 0.954
SEHLIYLEFKS [RASGRP1_Y215_T214I] | 0.499
LDLSFYTTSSS [EMD_Y182_P183T_YF] | 0.595
SVMAEYGLYGA [VSX2_Y219] | 0.593
CTTIHDNFMCN [TP53_Y234_Y234D_YF] | 0.895
LRKQDYQEILD [SLC35G2_Y403] | 6.76
RLRIDYERVSQ [DSP_Y1542] | 0.821
YHLLPYTIRAM [PARS2_Y93_V95I] | 6.08
PFNAEYGGGGG [AKR1B10_Y316] | 0.379

What follows are sequences tested against Grb2 SH2 (UniProt P62993) in the same assay as above.
Sequence of Grb2 SH2 (P62993 whole entry, looked up): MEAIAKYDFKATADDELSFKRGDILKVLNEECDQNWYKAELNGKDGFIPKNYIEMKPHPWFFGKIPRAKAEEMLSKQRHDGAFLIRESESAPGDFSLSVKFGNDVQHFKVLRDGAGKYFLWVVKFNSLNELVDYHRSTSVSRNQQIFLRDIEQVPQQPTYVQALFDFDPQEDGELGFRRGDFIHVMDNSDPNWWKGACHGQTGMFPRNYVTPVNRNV

Sequence | SH2 binding enrichment
QRRLVYFEGGA [RYR1_Y245_YF] | 1.58
TFACSYTPVKA [FLNB_Y708_YF] | 0.481
RETPLYKACER [ASB2_Y162] | 1.42
DVYVSYDCGKS [SORL1_Y139_Y141C] | 0.82
PSELYYSKISP [SMG1_Y2254_G2258S] | 1.18
NEKNIYGVPLM [BMPR2_Y247_R248G] | 0.808
YPRTGYSVPYG [TGM1_Y370_L366P] | 1.01
FGSGNYNDFGN [HNRNPA2B1_Y300_YF] | 0.975
INPIIYAFVGE [CCR5_Y297] | 0.776
KLIMECLPYGS [JAK2_Y931_Y931C] | 0.767
FGVVGYLAIVF [RNF175_Y155_M159V] | 1.06
ADDSFYTVRSA [ZAP70_Y493_A495V_YF] | 0.701
ERNTVYSSSGV [NELL2_Y350] | 0.952
FGAHKYHPLPV [OAT_Y55_N54K_YF] | 1.46
WFPYTYVEEDE [VAV3_Y842_S840Y] | 0.879
EVNETYVPKEF [ALB_Y521_D518N] | 0.759
VAFVFYKSIGP [ADGRL4_Y302_YF] | 0.897

Sequence | SH2 binding enrichment
SILAVYSKDIF [PANK2_Y400_N404I_YF] | 1.02
LARDMCDKEYY [MET_Y1230_Y1230C] | 0.714
DNQYAYLKAII [HNF4A_Y288_E285Q] | 0.769
AEPPDYSPVTH [ADGRG2_Y285] | 0.836
HFPDVYAREQL [ALX3_Y181_YF] | 0.832
RRNNSYTCYTA [SLC20A2_Y386] | 0.915
LLIVEYAKFGS [RET_Y806_YF] | 1.14
RLVVVYPWTQR [HBB_Y36_L33V] | 1.45
SEHLIYLEFKS [RASGRP1_Y215_T214I] | 0.801
LDLSFYTTSSS [EMD_Y182_P183T_YF] | 0.945
SVMAEYGLYGA [VSX2_Y219] | 0.908
CTTIHDNFMCN [TP53_Y234_Y234D_YF] | 0.949
LRKQDYQEILD [SLC35G2_Y403] | 0.82
RLRIDYERVSQ [DSP_Y1542] | 1.07
YHLLPYTIRAM [PARS2_Y93_V95I] | 0.994
PFNAEYGGGGG [AKR1B10_Y316] | 0.554

Each sequence was assayed against SHP2-C SH2 in the same assay as above.

Sequence | SH2 binding enrichment
QRRLVYFEGGA [RYR1_Y245_YF] | 0.944
TFACSYTPVKA [FLNB_Y708_YF] | 1.39
RETPLYKACER [ASB2_Y162] | 1.27
DVYVSYDCGKS [SORL1_Y139_Y141C] | 0.791
PSELYYSKISP [SMG1_Y2254_G2258S] | 2.66
NEKNIYGVPLM [BMPR2_Y247_R248G] | 0.785
YPRTGYSVPYG [TGM1_Y370_L366P] | 0.854
FGSGNYNDFGN [HNRNPA2B1_Y300_YF] | 0.408
INPIIYAFVGE [CCR5_Y297] | 0.6
KLIMECLPYGS [JAK2_Y931_Y931C] | 0.606
FGVVGYLAIVF [RNF175_Y155_M159V] | 1.12
ADDSFYTVRSA [ZAP70_Y493_A495V_YF] | 0.556
ERNTVYSSSGV [NELL2_Y350] | 0.741
FGAHKYHPLPV [OAT_Y55_N54K_YF] | 1.26
WFPYTYVEEDE [VAV3_Y842_S840Y] | 1.91
EVNETYVPKEF [ALB_Y521_D518N] | 0.501
VAFVFYKSIGP [ADGRL4_Y302_YF] | 0.874

Sequence | SH2 binding enrichment
SILAVYSKDIF [PANK2_Y400_N404I_YF] | 0.678
LARDMCDKEYY [MET_Y1230_Y1230C] | 0.593
DNQYAYLKAII [HNF4A_Y288_E285Q] | 0.826
AEPPDYSPVTH [ADGRG2_Y285] | 0.611
HFPDVYAREQL [ALX3_Y181_YF] | 0.682
RRNNSYTCYTA [SLC20A2_Y386] | 1
LLIVEYAKFGS [RET_Y806_YF] | 1.29
RLVVVYPWTQR [HBB_Y36_L33V] | 1.5
SEHLIYLEFKS [RASGRP1_Y215_T214I] | 0.729
LDLSFYTTSSS [EMD_Y182_P183T_YF] | 0.657
SVMAEYGLYGA [VSX2_Y219] | 0.609
CTTIHDNFMCN [TP53_Y234_Y234D_YF] | 0.605
LRKQDYQEILD [SLC35G2_Y403] | 0.606
RLRIDYERVSQ [DSP_Y1542] | 1.12
YHLLPYTIRAM [PARS2_Y93_V95I] | 1.14
PFNAEYGGGGG [AKR1B10_Y316] | 0.417

What follows are sequences tested against Jak2 (UniProt O60674) (assay: phosphorylation enrichment, bacterial display (enrichment ratio); higher = better substrate or ligand; peptides without Tyr show the background).
Sequence of Jak2 (O60674 whole entry, looked up): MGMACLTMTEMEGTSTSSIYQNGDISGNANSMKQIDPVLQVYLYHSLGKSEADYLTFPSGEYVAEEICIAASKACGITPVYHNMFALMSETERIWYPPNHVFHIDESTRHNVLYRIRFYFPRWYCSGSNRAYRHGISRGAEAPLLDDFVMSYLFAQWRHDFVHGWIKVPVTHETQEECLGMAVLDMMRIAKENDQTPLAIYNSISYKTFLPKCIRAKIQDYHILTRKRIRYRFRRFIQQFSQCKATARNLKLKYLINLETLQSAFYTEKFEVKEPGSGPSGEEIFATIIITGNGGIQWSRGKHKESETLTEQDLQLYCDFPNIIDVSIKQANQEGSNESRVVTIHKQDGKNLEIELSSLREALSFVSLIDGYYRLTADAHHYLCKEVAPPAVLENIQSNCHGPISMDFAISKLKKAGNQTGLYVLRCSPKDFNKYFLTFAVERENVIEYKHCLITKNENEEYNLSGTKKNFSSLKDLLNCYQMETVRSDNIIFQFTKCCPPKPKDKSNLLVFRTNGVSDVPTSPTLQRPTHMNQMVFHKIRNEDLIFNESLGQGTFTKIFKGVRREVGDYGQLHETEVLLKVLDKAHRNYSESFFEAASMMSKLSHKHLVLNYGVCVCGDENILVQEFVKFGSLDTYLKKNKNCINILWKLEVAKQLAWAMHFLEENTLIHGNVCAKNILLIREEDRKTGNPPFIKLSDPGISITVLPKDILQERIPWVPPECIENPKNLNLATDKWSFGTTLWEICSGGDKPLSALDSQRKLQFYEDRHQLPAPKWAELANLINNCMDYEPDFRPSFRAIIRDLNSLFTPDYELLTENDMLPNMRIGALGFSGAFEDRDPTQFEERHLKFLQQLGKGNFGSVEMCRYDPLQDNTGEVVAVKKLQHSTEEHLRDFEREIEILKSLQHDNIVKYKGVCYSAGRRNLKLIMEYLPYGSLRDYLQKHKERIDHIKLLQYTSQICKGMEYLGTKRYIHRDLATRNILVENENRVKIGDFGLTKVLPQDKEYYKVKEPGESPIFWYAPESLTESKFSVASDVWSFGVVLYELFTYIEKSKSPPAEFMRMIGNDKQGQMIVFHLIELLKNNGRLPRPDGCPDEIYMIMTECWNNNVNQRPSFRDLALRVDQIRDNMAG

Sequence | phosphorylation enrichment
QRRLVYFEGGA [RYR1_Y245_YF] | 0.825
TFACSYTPVKA [FLNB_Y708_YF] | 1.09
RETPLYKACER [ASB2_Y162] | 0.632
DVYVSYDCGKS [SORL1_Y139_Y141C] | 0.895
PSELYYSKISP [SMG1_Y2254_G2258S] | 6.46
NEKNIYGVPLM [BMPR2_Y247_R248G] | 0.627
YPRTGYSVPYG [TGM1_Y370_L366P] | 0.925
FGSGNYNDFGN [HNRNPA2B1_Y300_YF] | 0.726
INPIIYAFVGE [CCR5_Y297] | 1.03
KLIMECLPYGS [JAK2_Y931_Y931C] | 0.886
FGVVGYLAIVF [RNF175_Y155_M159V] | 1.65
ADDSFYTVRSA [ZAP70_Y493_A495V_YF] | 0.829
ERNTVYSSSGV [NELL2_Y350] | 0.405
FGAHKYHPLPV [OAT_Y55_N54K_YF] | 0.424
WFPYTYVEEDE [VAV3_Y842_S840Y] | 1.08
EVNETYVPKEF [ALB_Y521_D518N] | 1.19
VAFVFYKSIGP [ADGRL4_Y302_YF] | 0.868

Sequence | phosphorylation enrichment
SILAVYSKDIF [PANK2_Y400_N404I_YF] | 0.688
LARDMCDKEYY [MET_Y1230_Y1230C] | 2.02
DNQYAYLKAII [HNF4A_Y288_E285Q] | 1.11
AEPPDYSPVTH [ADGRG2_Y285] | 0.836
HFPDVYAREQL [ALX3_Y181_YF] | 0.616
RRNNSYTCYTA [SLC20A2_Y386] | 1.24
LLIVEYAKFGS [RET_Y806_YF] | 1.6
RLVVVYPWTQR [HBB_Y36_L33V] | 1.2
SEHLIYLEFKS [RASGRP1_Y215_T214I] | 1.2
LDLSFYTTSSS [EMD_Y182_P183T_YF] | 2.49
SVMAEYGLYGA [VSX2_Y219] | 0.59
CTTIHDNFMCN [TP53_Y234_Y234D_YF] | 0.849
LRKQDYQEILD [SLC35G2_Y403] | 0.999
RLRIDYERVSQ [DSP_Y1542] | 1.01
YHLLPYTIRAM [PARS2_Y93_V95I] | 7.24
PFNAEYGGGGG [AKR1B10_Y316] | 0.627
